According to doi:10.1101/202184 (bioRxiv, 2017):

T1: SecY (wild type, subunit of Escherichia coli SecYEG) (E. coli, UniProt P0AGA2 1-443)
T1 sequence: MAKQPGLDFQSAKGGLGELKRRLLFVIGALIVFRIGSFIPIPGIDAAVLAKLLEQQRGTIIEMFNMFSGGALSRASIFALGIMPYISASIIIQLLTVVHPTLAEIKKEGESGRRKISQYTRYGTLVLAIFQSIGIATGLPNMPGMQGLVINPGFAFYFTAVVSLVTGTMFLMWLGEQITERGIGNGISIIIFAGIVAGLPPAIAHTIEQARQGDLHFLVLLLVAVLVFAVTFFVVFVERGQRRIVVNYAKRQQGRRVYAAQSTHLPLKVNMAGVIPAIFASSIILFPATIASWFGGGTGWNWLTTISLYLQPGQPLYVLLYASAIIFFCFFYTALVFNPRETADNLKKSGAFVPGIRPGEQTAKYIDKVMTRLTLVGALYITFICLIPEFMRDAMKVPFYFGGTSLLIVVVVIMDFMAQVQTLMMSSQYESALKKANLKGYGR

B1: SecE (subunit of Escherichia coli SecYEG) (natural protein)
chain: MSANTEAQGSGRGLEAMKWVVVVALLLVAIVGNYLYRDIMLPLRALAVVILIAAAGGVALLTTKGKATVAFAREARTEVRKVIWPTRQETLHTTLIVAAVTAVMSLILWGLDGILVRLVSFITGLRF

Assays:
[1] = molecular target: T1, SecY (wild type, subunit of Escherichia …); test: native MS
[2] = molecular target: B1; test: native MS

Row | binding result [1] | binding result [2] | Binder
1 | binds | – | B1
2 | binds | binds | SecG (subunit of Escherichia coli SecYEG) (natural protein) MYEALLVVFLIVAIGLVGLIMLQQGKGADMGASFGAGASATLFGSSGSGNFMTRMTALLATLFFIISLVLGNINSNKTNKGSEWENLSAPAKTEQTQPAAPAKPTSDIPN
